Experimental data from publication PMC2034464 (Nucleic Acids Research, 2007).

Key:
[1] = target: T1, MutSα (MSH2/MSH6 heterodimer) (human, UniProt P43246 1-934; P52701 1-1360); assay: ELISA
[2] = target: T2, MutSβ (MSH2/MSH3 heterodimer) (human, UniProt P43246 1-934; P20585 1-1137); assay: ELISA
[3] = target: T3, MutLα (MLH1/PMS2 heterodimer) (human, UniProt P40692 1-756; P54278 1-862); assay: ELISA
[4] = target: T1, MutSα (MSH2/MSH6 heterodimer); assay: pull-down
[5] = target: T2, MutSβ (MSH2/MSH3 heterodimer); assay: pull-down
[6] = target: T3, MutLα (MLH1/PMS2 heterodimer); assay: pull-down

T3 sequence (P40692 whole entry, chain 1 of 2): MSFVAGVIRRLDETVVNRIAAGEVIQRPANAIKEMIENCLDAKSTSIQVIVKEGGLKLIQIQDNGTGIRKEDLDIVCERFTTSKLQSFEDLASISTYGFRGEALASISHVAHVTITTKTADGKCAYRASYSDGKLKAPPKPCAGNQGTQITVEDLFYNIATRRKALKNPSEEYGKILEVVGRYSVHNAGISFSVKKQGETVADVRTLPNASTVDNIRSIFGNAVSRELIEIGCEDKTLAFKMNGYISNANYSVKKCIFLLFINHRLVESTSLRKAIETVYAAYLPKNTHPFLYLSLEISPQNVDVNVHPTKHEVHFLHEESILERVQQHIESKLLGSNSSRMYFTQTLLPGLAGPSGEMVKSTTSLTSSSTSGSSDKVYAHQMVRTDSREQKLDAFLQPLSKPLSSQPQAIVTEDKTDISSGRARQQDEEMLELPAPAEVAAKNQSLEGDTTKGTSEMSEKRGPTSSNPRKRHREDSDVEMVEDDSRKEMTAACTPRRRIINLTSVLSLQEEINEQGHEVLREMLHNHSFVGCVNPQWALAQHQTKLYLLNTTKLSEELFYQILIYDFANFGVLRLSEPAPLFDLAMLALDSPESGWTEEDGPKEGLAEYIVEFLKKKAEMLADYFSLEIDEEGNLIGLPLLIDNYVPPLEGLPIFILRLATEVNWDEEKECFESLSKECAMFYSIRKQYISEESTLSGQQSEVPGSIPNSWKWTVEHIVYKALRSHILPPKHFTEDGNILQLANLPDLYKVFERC
T3 sequence (P54278 whole entry, chain 2 of 2): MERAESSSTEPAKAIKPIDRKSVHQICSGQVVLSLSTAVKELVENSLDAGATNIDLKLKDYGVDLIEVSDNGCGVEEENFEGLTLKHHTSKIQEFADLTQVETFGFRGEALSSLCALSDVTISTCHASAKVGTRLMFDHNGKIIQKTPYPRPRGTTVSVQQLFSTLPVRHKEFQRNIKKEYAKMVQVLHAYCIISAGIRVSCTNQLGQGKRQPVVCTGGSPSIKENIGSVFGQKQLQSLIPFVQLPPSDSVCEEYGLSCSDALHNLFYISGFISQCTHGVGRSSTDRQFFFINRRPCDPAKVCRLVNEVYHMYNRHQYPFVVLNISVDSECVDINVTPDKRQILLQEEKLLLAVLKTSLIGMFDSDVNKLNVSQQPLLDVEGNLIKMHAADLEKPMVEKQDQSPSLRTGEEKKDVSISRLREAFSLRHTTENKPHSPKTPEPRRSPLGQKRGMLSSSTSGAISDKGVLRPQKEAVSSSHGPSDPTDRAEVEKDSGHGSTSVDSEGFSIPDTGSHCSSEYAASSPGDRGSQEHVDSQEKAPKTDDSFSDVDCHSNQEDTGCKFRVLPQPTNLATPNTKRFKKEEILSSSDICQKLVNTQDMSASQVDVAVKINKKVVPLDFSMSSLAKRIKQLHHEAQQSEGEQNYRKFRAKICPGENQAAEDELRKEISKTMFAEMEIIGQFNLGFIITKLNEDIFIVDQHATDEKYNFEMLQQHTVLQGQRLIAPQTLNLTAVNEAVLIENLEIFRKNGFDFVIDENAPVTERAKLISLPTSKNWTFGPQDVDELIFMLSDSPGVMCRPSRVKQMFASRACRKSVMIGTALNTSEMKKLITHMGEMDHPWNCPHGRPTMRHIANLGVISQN
T2 sequence (P43246 whole entry, chain 1 of 2): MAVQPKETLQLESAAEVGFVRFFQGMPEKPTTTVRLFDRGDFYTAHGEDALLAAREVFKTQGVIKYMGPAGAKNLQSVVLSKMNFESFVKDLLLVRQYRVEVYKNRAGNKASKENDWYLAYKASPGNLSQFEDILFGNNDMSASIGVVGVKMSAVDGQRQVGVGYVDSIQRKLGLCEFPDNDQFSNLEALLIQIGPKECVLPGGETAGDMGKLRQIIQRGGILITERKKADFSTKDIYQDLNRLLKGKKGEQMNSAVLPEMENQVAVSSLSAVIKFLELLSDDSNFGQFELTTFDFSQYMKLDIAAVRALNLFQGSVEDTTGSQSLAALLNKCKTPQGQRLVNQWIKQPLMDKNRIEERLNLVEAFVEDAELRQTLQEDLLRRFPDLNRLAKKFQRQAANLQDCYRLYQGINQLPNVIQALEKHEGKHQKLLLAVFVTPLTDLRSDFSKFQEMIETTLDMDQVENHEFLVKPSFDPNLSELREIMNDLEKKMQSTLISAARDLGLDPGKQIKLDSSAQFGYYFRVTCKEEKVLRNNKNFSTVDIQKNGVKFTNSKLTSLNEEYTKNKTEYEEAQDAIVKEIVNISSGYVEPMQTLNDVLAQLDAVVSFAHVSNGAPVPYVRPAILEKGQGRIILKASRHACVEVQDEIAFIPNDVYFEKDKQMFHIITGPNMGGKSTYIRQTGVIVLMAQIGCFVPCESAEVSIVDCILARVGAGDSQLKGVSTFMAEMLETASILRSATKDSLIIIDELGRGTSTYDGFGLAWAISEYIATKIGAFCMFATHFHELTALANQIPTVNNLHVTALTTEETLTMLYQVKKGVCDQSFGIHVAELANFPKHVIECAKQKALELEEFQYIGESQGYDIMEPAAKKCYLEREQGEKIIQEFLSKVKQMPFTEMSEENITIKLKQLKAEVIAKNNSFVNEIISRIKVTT
T2 sequence (P20585 whole entry, chain 2 of 2): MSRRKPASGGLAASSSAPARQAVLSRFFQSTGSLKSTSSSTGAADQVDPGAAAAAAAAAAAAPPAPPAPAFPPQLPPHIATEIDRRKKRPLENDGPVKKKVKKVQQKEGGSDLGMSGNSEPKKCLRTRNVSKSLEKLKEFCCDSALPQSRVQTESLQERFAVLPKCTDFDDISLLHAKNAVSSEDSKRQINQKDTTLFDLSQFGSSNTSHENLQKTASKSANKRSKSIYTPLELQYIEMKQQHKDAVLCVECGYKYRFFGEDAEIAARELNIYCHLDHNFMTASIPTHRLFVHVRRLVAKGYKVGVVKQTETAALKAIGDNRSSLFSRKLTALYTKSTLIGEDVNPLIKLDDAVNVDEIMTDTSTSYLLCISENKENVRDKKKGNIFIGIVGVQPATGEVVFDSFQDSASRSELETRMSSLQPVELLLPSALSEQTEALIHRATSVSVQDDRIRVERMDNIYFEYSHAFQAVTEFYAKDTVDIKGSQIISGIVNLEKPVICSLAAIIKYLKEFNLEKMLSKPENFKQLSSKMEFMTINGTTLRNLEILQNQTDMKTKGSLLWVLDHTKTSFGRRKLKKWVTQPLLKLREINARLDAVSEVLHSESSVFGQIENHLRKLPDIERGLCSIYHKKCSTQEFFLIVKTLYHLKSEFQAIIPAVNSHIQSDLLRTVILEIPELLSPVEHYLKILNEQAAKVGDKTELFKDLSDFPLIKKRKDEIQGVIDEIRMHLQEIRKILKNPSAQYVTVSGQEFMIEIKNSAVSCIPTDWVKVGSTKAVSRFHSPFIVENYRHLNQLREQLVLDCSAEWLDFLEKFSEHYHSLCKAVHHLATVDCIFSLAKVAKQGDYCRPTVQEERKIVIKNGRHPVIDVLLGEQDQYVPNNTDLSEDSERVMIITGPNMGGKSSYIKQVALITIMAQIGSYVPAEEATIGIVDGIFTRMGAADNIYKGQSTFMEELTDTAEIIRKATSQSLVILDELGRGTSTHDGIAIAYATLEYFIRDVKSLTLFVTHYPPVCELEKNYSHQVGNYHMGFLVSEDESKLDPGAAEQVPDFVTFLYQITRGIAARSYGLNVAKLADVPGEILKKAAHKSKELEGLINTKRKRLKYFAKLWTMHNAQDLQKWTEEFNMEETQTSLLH

Binder	binding result [5]	binding result [6]	further results
Recombinant human WRN (Werner syndrome helicase) (natural protein) not shown			Kd [1]: 38.5 nM; Kd [2]: 8.8 nM; Kd [3]: 34.9 nM
GST-WRN fragment 500–946 (domain or fragment) not shown	binds	binds	binding result [4]: binds
GST-WRN fragment 51–449 (domain or fragment, human, UniProt Q14191 51-449, looked up) GSIVYSYDASDCSFLSEDISMSLSDGDVVGFDMEWPPLYNRGKLGKVALIQLCVSESKCYLFHVSSMSVFPQGLKMLLENKAVKKAGVGIEGDQWKLLRDFDIKLKNFVELTDVANKKLKCTETWSLNSLVKHLLGKQLLKDKSIRCSNWSKFPLTEDQKLYAATDAYAGFIIYRNLEILDDTVQRFAINKEEEILLSDMNKQLTSISEEVMDLAKHLPHAFSKLENPRRVSILLKDISENLYSLRRMIIGSTNIETELRPSNNLNLLSFEDSTTGGVQQKQIREHEVLIHVEDETWDPTLDHLAKHDGEDVLGNKVERKEDGFEDGVEDNKLKENMERACLMSLDITEHELQILEQQSQEEYLSDIAYKSTEHLSPNDNENDTSYVIESDEDLEMEML		binds	
GST-WRN fragment 500–1149 (domain or fragment) not shown	binds		
GST-WRN fragment 949–1432 (domain or fragment, human, UniProt Q14191 949-1432, looked up) MDDSEDTSWDFGPQAFKLLSAVDILGEKFGIGLPILFLRGSNSQRLADQYRRHSLFGTGKDQTESWWKAFSRQLITEGFLVEVSRYNKFMKICALTKKGRNWLHKANTESQSLILQANEELCPKKLLLPSSKTVSSGTKEHCYNQVPVELSTEKKSNLEKLYSYKPCDKISSGSNISKKSIMVQSPEKAYSSSQPVISAQEQETQIVLYGKLVEARQKHANKMDVPPAILATNKILVDMAKMRPTTVENVKRIDGVSEGKAAMLAPLLEVIKHFCQTNSVQTDLFSSTKPQEEQKTSLVAKNKICTLSQSMAITYSLFQEKKMPLKSIAESRILPLMTIGMHLSQAVKAGCPLDLERAGLTPEVQKIIADVIRNPPVNSDMSKISLIRMLVPENIDTYLIHMAIEILKHGPDSGLQPSCDVNKRRCFPGSEEICSSSKRSKEEVGINTETSSAERKRRLPVWFAKGSDTSKKLMDKTKRGGLFS	binds		
